# Measurements published in publication PMC8043444.
# Molecular target: SARS-CoV-2 RBD WT for SPR binding assays (SARS-CoV-2) (UniProt P0DTC2)
substance,measurement,value
S309 IgG1 (LS) (antibody),"neutralisation of authentic SARS-CoV-2-Nluc on Vero E6 cells (IF/luc), IC50",78.9
same,"neutralisation of authentic SARS-CoV-2-Nluc on Vero E6 cells (IF/luc), IC90",300
